Residue numbers refer to the chain shown, from its start. Names may count otherwise. Where no end group is shown, it is not given here. FAM = 5'-fluorescein amidite
T1: FAM-tagged two-repeat S2-phosphorylated CTD peptide
T1 chain: YSPTSPSYSPTSPS

T2: FAM-tagged two-repeat S5-phosphorylated CTD peptide
T2 chain: YSPTSPSYSPTSPS

T3: FAM-tagged two-repeat non-phosphorylated CTD peptide
T3 chain: YSPTSPSYSPTSPS

T4: Seb1-CID(1-152) (S. pombe, UniProt Q9UTE3 1-152)
T4 construct: The full-length parent construct in pET41a(+) has a C-terminal His8 tag; also called CID WT; source: E. coli Rosetta, purified (Ni-NTA, size-exclusion chromatography)
T4 sequence (looked up): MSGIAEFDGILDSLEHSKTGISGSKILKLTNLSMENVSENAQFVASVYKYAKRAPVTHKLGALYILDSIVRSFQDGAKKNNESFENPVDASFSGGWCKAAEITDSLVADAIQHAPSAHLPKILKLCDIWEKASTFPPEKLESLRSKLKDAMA

T5: SUMO-RRM WT (Schizosaccharomyces pombe, UniProt Q9UTE3 388-540)
T5 sequence: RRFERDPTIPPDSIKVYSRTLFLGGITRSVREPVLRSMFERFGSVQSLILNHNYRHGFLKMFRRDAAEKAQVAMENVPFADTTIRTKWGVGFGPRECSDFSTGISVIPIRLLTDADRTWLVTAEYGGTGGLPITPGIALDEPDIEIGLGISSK

T6: SUMO-RRM F487A (Schizosaccharomyces pombe, UniProt Q9UTE3 388-540, F487A)
T6 sequence: T5 sequence with F100A

T7: SUMO-RRM R504E (Schizosaccharomyces pombe, UniProt Q9UTE3 388-540, R504E)
T7 sequence: T5 sequence with R117E

T8: SUMO-RRM R392E (Schizosaccharomyces pombe, UniProt Q9UTE3 388-540, R392E)
T8 sequence: T5 sequence with R5E

T9: SUMO-RRM F449A (Schizosaccharomyces pombe, UniProt Q9UTE3 388-540, F449A)
T9 sequence: T5 sequence with F62A

T10: SUMO-RRM R428E (Schizosaccharomyces pombe, UniProt Q9UTE3 388-540, R428E)
T10 sequence: T5 sequence with R41E

T11: SUMO-RRM K402A (Schizosaccharomyces pombe, UniProt Q9UTE3 388-540, K402A)
T11 sequence: T5 sequence with K15A

T12: Seb1-RRM388-540 (tag cleaved) (Schizosaccharomyces pombe, UniProt Q9UTE3 388-540)
T12 sequence: T5 sequence

T13: SUMO-RRM R450A (Schizosaccharomyces pombe, UniProt Q9UTE3 388-540, R450A)
T13 sequence: T5 sequence with R63A

T14: SUMO-RRM S492A (Schizosaccharomyces pombe, UniProt Q9UTE3 388-540, S492A)
T14 sequence: T5 sequence with S105A

T15: SUMO-RRM R472E (Schizosaccharomyces pombe, UniProt Q9UTE3 388-540, R472E)
T15 sequence: T5 sequence with R85E

B1: Seb1-CID(1-152), Q9UTE3 K121E (protein)
chain: T4 sequence (looked up) with K121E
B2: Seb1-CID(1-152), Q9UTE3 S22D; K25E; K124E (protein)
chain: T4 sequence (looked up) with S22D, K25E, K124E
B3: Seb1-CID(1-152), Q9UTE3 K124E (protein)
chain: T4 sequence (looked up) with K124E
B4: Seb1-CID(1-152), Q9UTE3 S22D; K25E (protein)
chain: T4 sequence (looked up) with S22D, K25E
B5: Seb1-CID(1-152), Q9UTE3 Y64K (protein)
chain: T4 sequence (looked up) with Y64K
B6: Seb1-CID(1-152) (domain or fragment)
chain: T4 sequence (looked up)
B7: FAM-tagged two-repeat non-phosphorylated CTD peptide (peptide)
chain: {FAM}-YSPTSPSYSPTSPS
B8: FAM-AUUAGUAAAA RNA (ssRNA)
RNA: AUUAGUAAAA

What was measured:
[1] = molecular target: T1, FAM-tagged two-repeat S2-phosphorylated …; test: fluorescence anisotropy (FA); details: chain shown with the change; read at the highest titration point, Seb1-CID 500 µM; parent: est. 110; read off a plot
[2] = molecular target: T2, FAM-tagged two-repeat S5-phosphorylated …; test: fluorescence anisotropy (FA); details: chain shown with the change; read at the highest titration point, Seb1-CID 500 µM; parent: est. 77; read off a plot
[3] = molecular target: T3, FAM-tagged two-repeat …; test: fluorescence anisotropy (FA); details: chain shown with the change; read at the highest titration point, Seb1-CID 500 µM; parent: est. 44; read off a plot
[4] = molecular target: FAM-tagged two-repeat S2-phosphorylated CTD peptide; test: fluorescence polarisation; fluorescence anisotropy; Seb1-CID(1-152) titrated against 75 nM N-terminally FAM-tagged two-repeat CTD peptide; 25 mM HEPES pH 7.3, 200 mM NaCl, 1 mM EDTA; 25 °C
[5] = molecular target: FAM-tagged two-repeat S5-phosphorylated CTD peptide; test: as above
[6] = molecular target: FAM-tagged two-repeat S7-phosphorylated CTD peptide; test: as above
Seb1-CID(1-152) = molecular target: T4, Seb1-CID(1-152); test: as above; details: both partners purified
SUMO-RRM WT = molecular target: T5, SUMO-RRM WT; test: fluorescence anisotropy; 25 mM Tris-HCl pH 8.0, 100 mM NaCl, 2 mM MgCl2, 1 mM DTT, 16.7% glycerol, 0.1% IGEPAL, 0.1 mg/ml tRNA, 2.5% RNasin, 25 C, 40 nM FAM-RNA; details: protein: recombinant; tags: N-terminal His6-SUMO; single strand
SUMO-RRM F487A = molecular target: T6, SUMO-RRM F487A; test: as above; details: protein: recombinant; tags: N-terminal His6-SUMO; single strand
SUMO-RRM R504E = molecular target: T7, SUMO-RRM R504E; test: as above; details: protein: recombinant; tags: N-terminal His6-SUMO; single strand
SUMO-RRM R392E = molecular target: T8, SUMO-RRM R392E; test: as above; details: protein: recombinant; tags: N-terminal His6-SUMO; single strand
SUMO-RRM F449A = molecular target: T9, SUMO-RRM F449A; test: as above; details: protein: recombinant; tags: N-terminal His6-SUMO; single strand
SUMO-RRM R428E = molecular target: T10, SUMO-RRM R428E; test: as above; details: protein: recombinant; tags: N-terminal His6-SUMO; single strand
SUMO-RRM K402A = molecular target: T11, SUMO-RRM K402A; test: as above; details: protein: recombinant; tags: N-terminal His6-SUMO; single strand
[7] = molecular target: T12, Seb1-RRM388-540 (tag cleaved); test: as above; details: protein: recombinant; tags: His6-SUMO removed with 3C protease; single strand
SUMO-RRM R450A = molecular target: T13, SUMO-RRM R450A; test: as above; details: protein: recombinant; tags: N-terminal His6-SUMO; single strand
SUMO-RRM S492A = molecular target: T14, SUMO-RRM S492A; test: fluorescence anisotropy; text: mild effect on binding; 25 mM Tris-HCl pH 8.0, 100 mM NaCl, 2 mM MgCl2, 1 mM DTT, 16.7% glycerol, 0.1% IGEPAL, 0.1 mg/ml tRNA, 2.5% RNasin, 25 C, 40 nM FAM-RNA; details: protein: recombinant; tags: N-terminal His6-SUMO; single strand
SUMO-RRM R472E = molecular target: T15, SUMO-RRM R472E; test: fluorescence anisotropy; text: completely abolishes RNA binding; fitted Kd error exceeds value; 25 mM Tris-HCl pH 8.0, 100 mM NaCl, 2 mM MgCl2, 1 mM DTT, 16.7% glycerol, 0.1% IGEPAL, 0.1 mg/ml tRNA, 2.5% RNasin, 25 C, 40 nM FAM-RNA; details: protein: recombinant; tags: N-terminal His6-SUMO; single strand

Binder	response [1]	response [2]	response [3]	further results
B1	47	47	34	–
B2	22	27	33	–
B3	59	58	56	–
B4	72	46	28	–
B5	65	40	20	–
B6	–	–	–	Kd [4]: 23.4 µM; Kd [5]: 83.7 µM; Kd [6]: 242 µM
B7	–	–	–	Kd (Seb1-CID(1-152)): > 1000 µM
B8	–	–	–	Kd (SUMO-RRM WT): 1.72 ± 0.06 µM; Kd (SUMO-RRM F487A): 25.6 ± 15.7 µM; Kd (SUMO-RRM R504E): 2.37 ± 0.17 µM; Kd (SUMO-RRM R392E): 3.33 ± 0.53 µM; Kd (SUMO-RRM F449A): 1.99 ± 0.19 µM; Kd (SUMO-RRM R428E): 2.87 ± 0.85 µM; Kd (SUMO-RRM K402A): 2.49 ± 0.33 µM; Kd [7]: 1.84 ± 0.63 µM; Kd (SUMO-RRM R450A): 1.91 ± 0.71 µM; Kd (SUMO-RRM S492A): 4.2 ± 0.56 µM; Kd (SUMO-RRM R472E): 17.8 ± 27.5 µM
